Source: patent US20190194323A1 (ALLAKOS, published 2019)
Positions count from the first letter of the chain named.

B1: anti-Siglec-7 antibody 4B12 (antibody, V domains shown)
VH: EVQLQQSGPELVKPGASVKIPCKASGYTFTDYNMDWVKQSHEKSLEWIGDIDPHNGVTLYNQKFKDKATLTIDKSSNTAYMELRSLTSEDSAVYYCALTGSTYWGQGTLVTVSA
VL: DIVMTQSQKFMSTSVGDRVSVTCKASQNVGTNVAWYQQKPGQSPKAVIYSASYRNSGVPDRFTGSGSGTDFTLTISNVQSEDLTEYFCQQYNNYPYTFGGGTKLEIK
notes: Used as an AF647 conjugate for detection in the internalization assay; also called 4B12-AF647
B2: humanized 16H11-derived Fab, VH AK446-7 / VL AK418-2 (Fab, V domains shown)
VH: QVQLVQSGAEVKKPGSSVKVSCKASGYDFSNFWMNWVRQAPGQGLEWMGQIYPGDGEIKYNQKFQGRVTITADESTSTAYMELSSLRSEDTAVYYCARDDYLRAMDIWGQGTMVTVSS
VL: DIQMTQSPSSLSASVGDRVTITCRASGNIHNYLAWYQQKPGKAPKFLLYSAKRLESGVPSRFSGSGSGTDYTLTISSLQPEDFATYYCQHFWSSPYTFGGGTKVEIK
notes: Measured as monovalent Fab; also called No. 33; AK446-7/AK418-2
B3: humanized 16H11-derived Fab, VH AK485-5 / VL AK448-3 (Fab, V domains shown)
VH: B2 VH with W33A
VL: B2 VL with G27Q, G100Q, V104L
notes: Measured as monovalent Fab; also called No. 46
B4: humanized 16H11-derived Fab, VH AK484-7 / VL AK448-3 (Fab, V domains shown)
VH: B2 VH with F32Y, I107Y, M113L
VL: B2 VL with G27Q, G100Q, V104L
notes: Measured as monovalent Fab; also called No. 44; VH484-7 and VL448-3
B5: humanized 16H11-derived Fab, VH AK484-6 / VL AK418-2 (Fab, V domains shown)
VH: B2 VH with F32Y
VL: B2 VL
notes: Measured as monovalent Fab; also called No. 42; VH484-6 and VL418-2
B6: humanized 16H11-derived Fab, VH AK449-4 / VL AK418-2 (Fab, V domains shown)
VH: B2 VH with Q50G
VL: B2 VL
notes: Measured as monovalent Fab; also called No. 28
B7: humanized 16H11-derived Fab, VH AK444-2 / VL AK418-2 (Fab, V domains shown)
VH: B2 VH with Y95F, I107Y, M113L
VL: B2 VL
notes: Measured as monovalent Fab; also called No. 24; VH444-2 and VL418-2
B8: humanized 16H11-derived Fab, VH AK485-4 / VL AK448-3 (Fab, V domains shown)
VH: B2 VH with W33A, I107Y, M113L
VL: B2 VL with G27Q, G100Q, V104L
notes: Measured as monovalent Fab; also called No. 47
B9: humanized 16H11-derived Fab, VH AK463-2 / VL AK418-2 (Fab, V domains shown)
VH: B2 VH with I107Y, M113L
VL: B2 VL
notes: Measured as monovalent Fab; also called No. 35; VH463-2 and VL418-2
B10: humanized 16H11-derived Fab, VH AK417-17 / VL AK425-3 (Fab, V domains shown)
VH: B2 VH with Q50G, K59N, N61A
VL: B2 VL with F46L, S56D
notes: Measured as monovalent Fab; also called No. 8
B11: humanized 16H11-derived Fab, VH AK484-6 / VL AK448-3 (Fab, V domains shown)
VH: B2 VH with F32Y
VL: B2 VL with G27Q, G100Q, V104L
notes: Measured as monovalent Fab; also called No. 43; VH484-6 and VL448-3
B12: humanized 16H11-derived Fab, VH AK417-17 / VL AK424-1 (Fab, V domains shown)
VH: B2 VH with Q50G, K59N, N61A
VL: B2 VL with F46L, E55A
notes: Measured as monovalent Fab; also called No. 7
B13: humanized 16H11-derived Fab, VH AK465-17 / VL AK418-2 (Fab, V domains shown)
VH: B2 VH with N61A
VL: B2 VL
notes: Measured as monovalent Fab; also called No. 39; FH465-17 and VL418-2
B14: humanized 16H11-derived Fab, VH AK417-17 / VL AK427-1 (Fab, V domains shown)
VH: B2 VH with Q50G, K59N, N61A
VL: B2 VL with G27Q, F46L, S56D
notes: Measured as monovalent Fab; also called No. 10
B15: humanized 16H11-derived Fab, VH AK447-2 / VL AK418-2 (Fab, V domains shown)
VH: B2 VH with K59N
VL: B2 VL
notes: Measured as monovalent Fab; also called No. 26
B16: humanized 16H11-derived Fab, VH AK438-4 / VL AK418-2 (Fab, V domains shown)
VH: B2 VH with I70L, Y95F, I107Y, M113L
VL: B2 VL
notes: Measured as monovalent Fab; also called No. 17; VH438-4 and VL418-2
B17: humanized 16H11-derived Fab, VH AK387-11 / VL AK418-2 (Fab, V domains shown)
VH: B2 VH with A24G, I70L, Y95F, I107Y, M113L
VL: B2 VL
notes: Measured as monovalent Fab; also called No. 32; VH387-11 and VL418-2
B18: humanized 16H11-derived Fab, VH AK443-1 / VL AK418-2 (Fab, V domains shown)
VH: B2 VH with A24G
VL: B2 VL
notes: Measured as monovalent Fab; also called No. 23; VH443-1 and VL418-2
B19: humanized 16H11-derived Fab, VH AK417-17 / VL AK421-3 (Fab, V domains shown)
VH: B2 VH with Q50G, K59N, N61A
VL: B2 VL with G100Q, V104L
notes: Measured as monovalent Fab; also called No. 5
B20: humanized 16H11-derived Fab, VH AK485-5 / VL AK418-2 (Fab, V domains shown)
VH: B2 VH with W33A
VL: B2 VL
notes: Measured as monovalent Fab; also called No. 45
B21: humanized 16H11-derived Fab, VH AK446-7 / VL AK448-3 (Fab, V domains shown)
VH: B2 VH
VL: B2 VL with G27Q, G100Q, V104L
notes: Measured as monovalent Fab; also called No. 34; AK446-7/AK448-3
B22: humanized 16H11-derived Fab, VH AK417-8 / VL AK439-5 (Fab, V domains shown)
VH: B2 VH with Q50G, K59N, N61A, I107V
VL: B2 VL with G27Q, S56D, G100Q, V104L
notes: Measured as monovalent Fab; also called No. 22
B23: humanized 16H11-derived Fab, VH AK463-2 / VL AK419-2 (Fab, V domains shown)
VH: B2 VH with I107Y, M113L
VL: B2 VL with G27Q
notes: Measured as monovalent Fab; also called No. 38
B24: humanized 16H11-derived Fab, VH AK417-17 / VL AK439-5 (Fab, V domains shown)
VH: B2 VH with Q50G, K59N, N61A
VL: B2 VL with G27Q, S56D, G100Q, V104L
notes: Measured as monovalent Fab; also called No. 21
B25: humanized 16H11-derived Fab, VH AK441-2 / VL AK418-2 (Fab, V domains shown)
VH: B2 VH with A24G, I70L
VL: B2 VL
notes: Measured as monovalent Fab; also called No. 19; VH441-2 and VL418-2
B26: humanized 16H11-derived Fab, VH AK463-2 / VL AK448-3 (Fab, V domains shown)
VH: B2 VH with I107Y, M113L
VL: B2 VL with G27Q, G100Q, V104L
notes: Measured as monovalent Fab; also called No. 36; Vh463-2 and VL448-3
B27: humanized 16H11-derived Fab, VH AK417-17 / VL AK426-2 (Fab, V domains shown)
VH: B2 VH with Q50G, K59N, N61A
VL: B2 VL with G27Q, F46L, E55A
notes: Measured as monovalent Fab; also called No. 9
B28: humanized 16H11-derived Fab, VH AK440-2 / VL AK418-2 (Fab, V domains shown)
VH: B2 VH with A24G, Y95F, I107Y, M113L
VL: B2 VL
notes: Measured as monovalent Fab; also called No. 18; VH440-2 and VL418-2
B29: humanized 16H11-derived Fab, VH AK449-6 / VL AK418-2 (Fab, V domains shown)
VH: B2 VH with A24G, Q50G
VL: B2 VL
notes: Measured as monovalent Fab; also called No. 30; VH449-6 and VL418-2
B30: humanized 16H11-derived Fab, VH AK446-7 / VL AK419-2 (Fab, V domains shown)
VH: B2 VH
VL: B2 VL with G27Q
notes: Measured as monovalent Fab; also called No. 37
B31: humanized 16H11-derived Fab, VH AK465-17 / VL AK448-3 (Fab, V domains shown)
VH: B2 VH with N61A
VL: B2 VL with G27Q, G100Q, V104L
notes: Measured as monovalent Fab; also called No. 41
B32: humanized 16H11-derived Fab, VH AK465-17 / VL AK419-2 (Fab, V domains shown)
VH: B2 VH with N61A
VL: B2 VL with G27Q
notes: Measured as monovalent Fab; also called No. 40
B33: humanized 16H11-derived Fab, VH AK449-4 / VL AK448-3 (Fab, V domains shown)
VH: B2 VH with Q50G
VL: B2 VL with G27Q, G100Q, V104L
notes: Measured as monovalent Fab; also called No. 29; VH449-4 and VL448-3
B34: humanized 16H11-derived Fab, VH AK447-2 / VL AK448-3 (Fab, V domains shown)
VH: B2 VH with K59N
VL: B2 VL with G27Q, G100Q, V104L
notes: Measured as monovalent Fab; also called No. 27
B35: humanized 16H11-derived Fab, VH AK445-3 / VL AK418-2 (Fab, V domains shown)
VH: B2 VH with I70L
VL: B2 VL
notes: Measured as monovalent Fab; also called No. 25; VH445-3 and VL418-2
B36: humanized 16H11-derived Fab, VH AK410-1 / VL AK418-2 (Fab, V domains shown)
VH: B2 VH with Q50G, K59N, N61A, I107Y, M113L
VL: B2 VL
notes: Measured as monovalent Fab; also called No. 1; AK410-1/AK418-2
B37: humanized 16H11-derived Fab, VH AK449-6 / VL AK448-3 (Fab, V domains shown)
VH: B2 VH with A24G, Q50G
VL: B2 VL with G27Q, G100Q, V104L
notes: Measured as monovalent Fab; also called No. 31
B38: 13D2 (antibody, V domains shown)
VH: DVQLQESGPGMVKPSQSLSLTCTVTGYSITSDYDWHWIRHFPGNKLEWMGYISYSGSTKYNPSLKSRISITHDTSKNHFFLKLNSVTAEDTATYYCARENDFPGFWYFDVWGTGTTVTVSS
VL: DIVMSQSPSSQVVSVGEKVTVTCTSSQSLLYGTNQKNYLAWYQQKPGQSPKLLIYWASIRESGVPDRFTGSGSGTDFTLTISSVKAEDLAVYYCQQYYSYPLTFGAGTKLELK

Tests used:
Siglec-7-ECD [1] = biological target: T1, Siglec-7-ECD (human, UniProt Q9Y286 19-353); assay: bio-layer interferometry (ForteBio): antibody captured on the sensor, Siglec-7-ECD as analyte, 1:1 global fit
T1 construct: also called p75; AIRM
T1 sequence (Q9Y286 19-353 limits assumed): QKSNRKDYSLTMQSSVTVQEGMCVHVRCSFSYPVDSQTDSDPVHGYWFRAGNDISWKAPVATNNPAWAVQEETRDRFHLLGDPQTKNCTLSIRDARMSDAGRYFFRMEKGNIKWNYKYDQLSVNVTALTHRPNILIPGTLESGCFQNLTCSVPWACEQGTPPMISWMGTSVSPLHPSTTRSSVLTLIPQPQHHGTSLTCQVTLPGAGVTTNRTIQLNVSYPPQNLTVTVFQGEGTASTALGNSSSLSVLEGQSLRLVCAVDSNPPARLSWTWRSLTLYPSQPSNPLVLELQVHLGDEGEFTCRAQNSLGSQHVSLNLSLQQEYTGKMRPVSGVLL
Method: A panel of antibodies was evaluated for binding to Siglec-7. The results identified anti-Siglec-7 antibodies that have improved KD values compared to commercially available anti-Siglec-7 antibodies (FIG. 7).
Antibody binding analysis was carried out by bio-layer interferometry (ForteBio). […] Antibodies were captured on anti-mouse kinetic sensors at 0.5 ug/mL; Siglec-7-ECD was used as analyte and diluted in assay buffer from 50 nM to 1.56 nM with 2× dilutions. Two-minute associations were conducted, followed by 10-minute dissociations. Results were determined relative to a control empty reference AHC sensor, and analyzed using ForteBio analysis software with 1:1 global fit parameters.

Siglec-7-ECD [2] = biological target: T1, Siglec-7-ECD; assay: monovalent Fab; bio-layer interferometry (ForteBio) per Methods
[3] = biological target: Siglec-7 on primary human cells (NK cells, CD8+ tumor-infiltrating T cells) (human, UniProt Q9Y286 19-467); assay: cell-based or functional assay
Siglec-7 on primary human cells (NK cells, CD8+ tumor-infiltrating T cells), sequence (Q9Y286 19-467 limits assumed): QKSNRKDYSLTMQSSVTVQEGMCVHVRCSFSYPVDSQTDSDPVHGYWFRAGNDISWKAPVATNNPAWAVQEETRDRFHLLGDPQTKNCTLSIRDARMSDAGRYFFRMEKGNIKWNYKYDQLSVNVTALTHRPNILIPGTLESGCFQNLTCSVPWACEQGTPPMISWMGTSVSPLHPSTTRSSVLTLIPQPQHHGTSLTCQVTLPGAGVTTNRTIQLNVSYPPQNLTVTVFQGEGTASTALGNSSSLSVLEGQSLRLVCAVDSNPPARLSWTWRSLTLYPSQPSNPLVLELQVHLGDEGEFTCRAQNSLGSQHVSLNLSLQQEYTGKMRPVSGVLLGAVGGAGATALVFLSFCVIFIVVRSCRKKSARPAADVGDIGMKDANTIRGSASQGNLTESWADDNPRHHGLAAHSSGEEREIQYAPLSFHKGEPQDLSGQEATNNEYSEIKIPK

Binder	Kd (Siglec-7-ECD [2]) [pM]	also measured
B1		Kd (Siglec-7-ECD [1]): 260 pM
B2	< 75	
B3	> 500	
B4	< 75	
B5	< 100	
B6	75 to 150	
B7	< 75	
B8	> 500	
B9	< 75	
B10	> 500	
B11	< 75	
B12	> 500	
B13	< 75	
B14	> 500	
B15	75 to 150	
B16	< 75	
B17	< 75	
B18	< 75	
B19	250 to 500	

Binder	Kd (Siglec-7-ECD [2]) [pM]	also measured
B20	> 500	
B21	< 75	
B22	250	
B23	> 500	
B24	250 to 500	
B25	< 75	
B26	< 75	
B27	> 500	
B28	< 100	
B29	< 100	
B30	> 500	
B31	100 to 150	
B32	150 to 250	
B33	< 100	
B34	75 to 150	
B35	< 75	
B36	250 to 500	
B37	50 to 100	
B38		IC50 of Siglec-7 internalization on NK cells (24 h, PBMC; remaining surface Siglec-7 stained with 4B12-AF647) [3]: 17.5 pM
